# Test results published in the Immune Epitope Database (IEDB).
# Experiments:
# HLA-A*32:01 = assay: IEDB peptide-MHC binding, purified MHC/competitive/radioactivity; filed as Kd, often an IC50 or EC50 that approximates it; ≥ and ≤ were set here for values at or beyond the usual limits of such assays
# HLA-B*44:02 = assay: as above
# HLA-B*15:01 = assay: IEDB peptide-MHC binding, purified MHC/direct/fluorescence; filed as Kd, often an IC50 or EC50 that approximates it; ≥ and ≤ were set here for values at or beyond the usual limits of such assays; conditions: source organism: Pseudomonas tolaasii
# HLA-A*11:01 [1] = assay: as above; conditions: source organism: Pseudomonas tolaasii
# HLA-A*69:01 = assay: as above; conditions: source organism: Pseudomonas tolaasii
# HLA-A*02:01 = assay: as above; conditions: source organism: Pseudomonas tolaasii
# HLA-A*03:01 [2] = assay: as above; conditions: source organism: Pseudomonas tolaasii
# HLA-B*07:02 = assay: as above; conditions: source organism: Pseudomonas tolaasii
# HLA-B*08:01 [3] = assay: as above
# HLA-B*40:01 [4] = assay: as above; conditions: source organism: Pseudomonas fluorescens
# HLA-A*01:01 [5] = assay: as above; conditions: source organism: Pseudomonas tolaasii
# HLA-B*58:01 = assay: as above; conditions: source organism: Pseudomonas tolaasii
# HLA-A*26:01 [6] = assay: as above
# HLA-B*27:05 = assay: as above; conditions: source organism: Pseudomonas tolaasii
# HLA-A*31:01 = assay: as above; conditions: source organism: Pseudomonas tolaasii
# HLA-A*24:02 = assay: IEDB peptide-MHC binding, purified MHC/competitive/fluorescence; ≥ and ≤ were set here for values at or beyond the usual limits of such assays
# HLA-A*02:03 = assay: IEDB peptide-MHC binding, purified MHC/competitive/radioactivity; filed as Kd, often an IC50 or EC50 that approximates it; ≥ and ≤ were set here for values at or beyond the usual limits of such assays
# HLA-A*02:02 = assay: as above
# HLA-A*02:06 = assay: as above
# HLA-A*68:02 = assay: as above
# HLA-A*29:02 = assay: as above
# HLA-A*30:01 = assay: as above
# HLA-A*01:01 [7] = assay: as above
# HLA-A*26:01 [8] = assay: as above
# HLA-A*30:02 = assay: as above
# HLA-B*51:01 = assay: as above
# HLA-B*40:01 [9] = assay: as above
# HLA-B*08:01 [10] = assay: as above; conditions: source organism: Dengue virus 1 Brazil/97-11/1997
# HLA-A*11:01 [11] = assay: as above; conditions: source organism: Dengue virus 4 Philippines/H241/1956
# HLA-A*03:01 [12] = assay: as above; conditions: source organism: Dengue virus 4 Philippines/H241/1956
# HLA-B*46:01 = assay: IEDB peptide-MHC binding, purified MHC/direct/fluorescence; filed as Kd, often an IC50 or EC50 that approximates it; ≥ and ≤ were set here for values at or beyond the usual limits of such assays; conditions: source organism: Yellow fever virus
# [13] = source organism: Dengue virus 4 Singapore/8976/1995
# [14] = source organism: Pseudomonas tolaasii
# [15] = source organism: Dengue virus 1 Brazil/97-11/1997
# [16] = source organism: Sudan ebolavirus
# [17] = source organism: Dengue virus 4 Philippines/H241/1956
# [18] = source organism: Mammarenavirus whitewaterense
# [19] = source organism: Mammarenavirus machupoense
# [20] = source organism: Dengue virus 1 Singapore/S275/1990
# [21] = source organism: Dengue virus 2 Jamaica/1409/1983
# [22] = source organism: Dengue virus 3 Martinique/1243/1999
# [23] = source organism: Lassa virus Josiah
# [24] = source organism: Mammarenavirus juninense
# [25] = source organism: Zaire ebolavirus
# [26] = source organism: Dengue virus 3 Sri Lanka/1266/2000
# [27] = source organism: Lymphocytic choriomeningitis virus (strain Armstrong)
# [28] = source organism: Lymphocytic choriomeningitis virus (strain WE)
# [29] = source organism: Vaccinia virus WR
# [30] = source organism: Mammarenavirus guanaritoense
sequence,measurement,setting,value
ADMGCVVSW,Kd,HLA-A*32:01; [13],0.415 µM
same,Kd,HLA-B*44:02; [13],0.0106 µM
AEGTGITHL,Kd,HLA-B*15:01,≥ 20 µM
same,Kd,HLA-A*11:01 [1],≥ 20 µM
same,Kd,HLA-A*69:01,≥ 20 µM
same,Kd,HLA-A*02:01,≥ 20 µM
same,Kd,HLA-A*03:01 [2],≥ 20 µM
same,Kd,HLA-B*07:02,≥ 20 µM
same,Kd,HLA-B*08:01 [3]; [14],≥ 20 µM
same,Kd,HLA-B*40:01 [4],0.0543 µM
same,Kd,HLA-A*01:01 [5],≥ 20 µM
same,Kd,HLA-B*58:01,≥ 20 µM
same,Kd,HLA-A*26:01 [6]; [14],≥ 20 µM
same,Kd,HLA-B*27:05,≥ 20 µM
same,Kd,HLA-A*31:01,≥ 20 µM
AEHSGTSHNI,Kd,HLA-B*44:02; [15],0.0482 µM
AGIAWIPYF,IC50,HLA-A*24:02; [16],2.64 µM
AICSAVPTEW,Kd,HLA-B*44:02; [17],0.743 µM
ALNELPESL,Kd,HLA-A*32:01; [17],1.4 µM
same,Kd,HLA-A*02:03; [17],0.0941 µM
ALNIALIAV,Kd,HLA-A*02:02; [18],0.000699 µM
same,Kd,HLA-A*02:06; [18],0.1 µM
same,Kd,HLA-A*02:03; [18],0.000225 µM
same,Kd,HLA-A*68:02; [18],3.09 µM
AMKAQFERDL,Kd,HLA-A*68:02; source organism: Homo sapiens,≥ 60 µM
CMLNNSFYY,Kd,HLA-A*32:01; [19],10.5 µM
same,Kd,HLA-A*29:02; [19],0.00133 µM
same,Kd,HLA-A*30:01; [19],0.556 µM
same,Kd,HLA-A*01:01 [7]; [19],1.78 µM
same,Kd,HLA-A*26:01 [8]; [19],0.958 µM
same,Kd,HLA-A*30:02; [19],0.00546 µM
CVMASSVLL,Kd,HLA-A*68:02; [20],0.00146 µM
DFIGFGAAY,Kd,HLA-A*26:01 [6]; source organism: Mycobacterium tuberculosis variant bovis,0.0032 µM
DTIYPTAIY,Kd,HLA-A*26:01 [6]; source organism: Mycobacterium tuberculosis,0.003 µM
EPPFGDSYI,Kd,HLA-B*51:01; [21],0.349 µM
FDLCEGTTVV,Kd,HLA-B*51:01; [15],10.5 µM
FETYQLWTAL,Kd,HLA-B*40:01 [9]; [22],0.0104 µM
same,Kd,HLA-B*51:01; [22],1.9 µM
FGRAKGSRAI,Kd,HLA-B*51:01; [17],14.5 µM
FSLGVLGMAL,Kd,HLA-A*02:06; [21],0.0035 µM
same,Kd,HLA-B*51:01; [21],3.86 µM
FSRGNSLSGV,Kd,HLA-B*51:01; [21],11.1 µM
FTVHADTGCA,Kd,HLA-A*68:02; [17],0.134 µM
GEWKEGEEV,Kd,HLA-B*40:01 [9]; [21],0.295 µM
same,Kd,HLA-B*44:02; [21],16.3 µM
GEYRLKGESR,Kd,HLA-B*40:01 [9]; [22],4.13 µM
GLYKQPGVPV,Kd,HLA-A*02:02; [23],1.4 µM
same,Kd,HLA-A*02:06; [23],0.804 µM
same,Kd,HLA-A*02:03; [23],0.0238 µM
same,Kd,HLA-A*68:02; [23],≥ 5 µM
GPLIAGGMLI,Kd,HLA-B*51:01; [15],18.8 µM
GTFHTMWHV,Kd,HLA-A*02:06; [21],0.00733 µM
same,Kd,HLA-A*68:02; [21],0.0122 µM
GVLEEQGSFY,Kd,HLA-A*32:01; [24],≥ 69.9 µM
same,Kd,HLA-A*29:02; [24],1.02 µM
same,Kd,HLA-A*30:01; [24],≥ 39.6 µM
same,Kd,HLA-A*01:01 [7]; [24],1.64 µM
same,Kd,HLA-A*26:01 [8]; [24],0.223 µM
same,Kd,HLA-A*30:02; [24],0.243 µM
IENTSANLSL,Kd,HLA-B*40:01 [9]; [17],0.0344 µM
ILRKATRRL,Kd,HLA-B*08:01 [3]; source organism: Influenza A virus (A/Ck/HK/CSW161/2003(H9N2)),0.369 µM
IMRRRQYVL,Kd,HLA-B*08:01 [3]; source organism: Giardia lamblia ATCC 50803,0.004 µM
IPPEKCDTL,Kd,HLA-B*51:01; source organism: Dengue virus 2 16681-PDK53,≥ 77.4 µM
KEENLVKSM,Kd,HLA-B*40:01 [9]; [20],2.83 µM
KEYTYPDSL,IC50,HLA-A*24:02; [25],≥ 184 µM
LEKKITQWL,Kd,HLA-B*40:01 [9]; [26],0.191 µM
same,Kd,HLA-B*44:02; [26],0.331 µM
LETRTETWM,Kd,HLA-B*40:01 [9]; [21],0.253 µM
LQFGFGWFSY,Kd,HLA-A*32:01; [27],0.00732 µM
same,Kd,HLA-A*29:02; [27],0.0196 µM
same,Kd,HLA-A*30:01; [27],5.21 µM
same,Kd,HLA-A*01:01 [7]; [27],≥ 70.4 µM
same,Kd,HLA-A*26:01 [8]; [27],0.473 µM
same,Kd,HLA-A*30:02; [27],0.00499 µM
LSVSLVLVGV,Kd,HLA-A*02:06; [21],0.0755 µM
same,Kd,HLA-A*68:02; [21],0.0122 µM
LTAIANQATV,Kd,HLA-A*68:02; [21],0.0188 µM
LTDNDDILM,Kd,HLA-A*32:01; [28],12.6 µM
same,Kd,HLA-A*29:02; [28],9.14 µM
same,Kd,HLA-A*30:01; [28],19.2 µM
same,Kd,HLA-A*01:01 [7]; [28],0.0213 µM
same,Kd,HLA-A*26:01 [8]; [28],≥ 47.4 µM
same,Kd,HLA-A*30:02; [28],0.587 µM
LTVAANEMGL,Kd,HLA-A*68:02; [15],0.198 µM
LWFNYLFGG,IC50,HLA-A*24:02; source organism: Variola virus,57.8 µM
MAEIPLQWI,Kd,HLA-B*51:01; [22],3.43 µM
MEFIDGISLG,Kd,HLA-B*40:01 [9]; [17],0.137 µM
MEIRPISEK,Kd,HLA-B*44:02; [22],1.26 µM
MPIRYQTTA,Kd,HLA-B*08:01 [10],0.201 µM
same,Kd,HLA-B*51:01; [15],1.69 µM
MTATPPGSV,Kd,HLA-A*68:02; [15],0.0062 µM
MTLWYMWQVK,Kd,HLA-A*11:01 [11],0.00651 µM
same,Kd,HLA-A*32:01; [17],0.927 µM
same,Kd,HLA-A*03:01 [12],0.00782 µM
NTPEGIIPA,Kd,HLA-A*68:02; [15],0.00922 µM
NTSMAMTCI,Kd,HLA-A*68:02; [17],0.238 µM
PKRSVMLIG,IC50,HLA-A*24:02; [29],38.4 µM
PSATKRWGF,IC50,HLA-A*24:02; [16],10.2 µM
PWTKISETK,IC50,HLA-A*24:02; [29],≥ 169 µM
QESADSFLL,IC50,HLA-A*24:02; [25],≥ 138 µM
QVFGAIYGA,Kd,HLA-A*68:02; [21],0.00197 µM
RFLVINRLG,IC50,HLA-A*24:02; [29],16.4 µM
RTWHYCGSY,Kd,HLA-B*46:01,≥ 20 µM
SEVSNVQRI,Kd,HLA-B*44:02; source organism: Lymphocytic choriomeningitis virus (strain Armstrong) (clone 53b),0.012 µM
SLIKYKKTLL,Kd,HLA-A*68:02; source organism: Homo sapiens,0.649 µM
STLELRSGY,Kd,HLA-A*26:01 [6]; source organism: Influenza A virus (A/Egypt/96/2002(H1N2)),0.0248 µM
SWDNTSVDLY,Kd,HLA-A*32:01; [30],≥ 69.9 µM
same,Kd,HLA-A*29:02; [30],0.856 µM
same,Kd,HLA-A*30:01; [30],9.33 µM
same,Kd,HLA-A*01:01 [7]; [30],1.28 µM
same,Kd,HLA-A*26:01 [8]; [30],≥ 69.7 µM
same,Kd,HLA-A*30:02; [30],0.147 µM
TAIANQATV,Kd,HLA-A*68:02; [21],0.01 µM
TAYGVLFSGV,Kd,HLA-A*02:06; [15],0.00154 µM
same,Kd,HLA-A*02:03; [15],0.0161 µM
same,Kd,HLA-A*68:02; [15],0.00516 µM
TEAKQPATL,Kd,HLA-B*40:01 [9]; [21],0.0186 µM
TEVDRTEAK,Kd,HLA-B*44:02; [22],≥ 20.8 µM
TIAVSMANI,Kd,HLA-A*68:02; [21],0.0342 µM
TTDFTRLRY,Kd,HLA-A*32:01; [30],11.5 µM
same,Kd,HLA-A*29:02; [30],0.0595 µM
same,Kd,HLA-A*30:01; [30],1.93 µM
same,Kd,HLA-A*01:01 [7]; [30],0.00753 µM
same,Kd,HLA-A*26:01 [8]; [30],2.41 µM
same,Kd,HLA-A*30:02; [30],0.551 µM
VPFCSHHFHE,Kd,HLA-B*51:01; [22],≥ 66.6 µM
VVIFILLMLV,Kd,HLA-A*02:06; [22],0.971 µM
same,Kd,HLA-A*68:02; [22],0.767 µM
WLHRGPKEF,Kd,HLA-B*08:01 [3]; source organism: West Nile virus,2.51 µM
YSEESPTEY,Kd,HLA-A*32:01; [30],≥ 77.8 µM
same,Kd,HLA-A*29:02; [30],≥ 25.4 µM
same,Kd,HLA-A*30:01; [30],19.4 µM
same,Kd,HLA-A*01:01 [7]; [30],0.225 µM
same,Kd,HLA-A*26:01 [8]; [30],≥ 77.9 µM
same,Kd,HLA-A*30:02; [30],≥ 76.9 µM
